# Experimental data as given in patent US7601803 (SCIL PROTEINS, dated 2009).
# B1: bovine gamma-II-crystalline wild-type, purified His-Tag protein after expression in pET-20b (other)
# chain: MGKITFYEDRGFQGHCYECSSDCPNLQPYFSRCNSIRVDSGCWMLYERPNYQGHQYFLRRGDYPDYQQWMGFNDSIRSCRLIPQHTGTFRMRIYERDDFRGQMSEITDDCPSLQDRFHLTEVHSLNVLEGSWVLYEMPSYRGRQYLLRPGEYRRYLDWGAMNAKVGSLRRVMDFYSDPNSSSVDKLAAALEHHHHHH
# notes: Starting protein used as the control, likewise with His-Tag; also called WT; gamma-B-crystalline
# Biological target: T1, BSA (UniProt P02769 25-607)
# T1 construct: Unconjugated carrier protein used as the control antigen
# T1 sequence (P02769 25-607 limits assumed): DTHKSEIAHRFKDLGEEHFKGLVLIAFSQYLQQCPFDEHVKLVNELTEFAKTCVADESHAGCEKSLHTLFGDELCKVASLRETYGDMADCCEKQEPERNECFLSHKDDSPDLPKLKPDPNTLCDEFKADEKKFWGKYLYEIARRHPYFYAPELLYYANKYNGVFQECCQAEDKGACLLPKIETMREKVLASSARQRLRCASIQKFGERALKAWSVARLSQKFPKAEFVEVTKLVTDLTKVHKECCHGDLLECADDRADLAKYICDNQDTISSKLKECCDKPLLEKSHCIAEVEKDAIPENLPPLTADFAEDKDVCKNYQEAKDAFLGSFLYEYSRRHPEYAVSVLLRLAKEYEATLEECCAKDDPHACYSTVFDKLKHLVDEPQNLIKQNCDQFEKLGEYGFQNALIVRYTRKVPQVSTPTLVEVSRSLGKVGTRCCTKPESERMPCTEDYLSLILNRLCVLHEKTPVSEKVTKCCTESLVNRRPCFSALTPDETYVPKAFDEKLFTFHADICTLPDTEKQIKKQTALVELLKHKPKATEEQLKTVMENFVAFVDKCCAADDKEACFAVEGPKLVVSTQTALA
# Test: concentration-dependent ELISA, BSA coated at 20 µg/ml, detected with tetra-His antibody
# Description: Specific binding of mutant 12A to the BSA-estradiol-17-hemisuccinate conjugate was assayed by carrying out an ELISA, with increasing concentrations of purified mutant 12A-His-Tag protein being used. Increasing amounts of gamma-II-crystalline wild-type (likewise with His-Tag) were used as control, and binding of both purified proteins to BSA was assayed. The concentration-dependant ELISA was carried out using NUNC-Tm plates. Antigen coating with the BSA-estradiol-17-hemisuccinate conjugate or with BSA was carried out at room temperature overnight. Coating was carried out with in each case 100 µl of antigen at a concentration of 20 µg/ml of PBS pH 7.6. After washing (2×PBS pH 7.6) and blocking the plates (3% Marvel/PBS at 37° C. for 2 h), in each case 1-13 µl of the protein stock solution (concentration 0.63 mg/ml) of purified Mu 12A or gamma-II-crystalline were introduced into a total 100 µl of reaction solution (PBS, 3% Marvel, x µl of protein) and incubated in the wells at 37° C. for 2 h. The secondary antibodies used were the tetra-His antibody from Qiagen in a dilution of 1:3000 and the anti-mouse POD antibody (Sigma) in a dilution of 1:2000. The antibodies were diluted with a 3% strength Marvel/PBS solution and 100 µl were added to the wells and incubated at 37° C. for in each case 1 h. […] No increase was detected using gamma-II-crystalline. […]
binder,measurement,value
B1,binding result,no binding
